Experimental findings from paper PMC8820655 (bioRxiv, 2022) are described below.

Assay [1] deals with His-tagged RBD protein of SARS-CoV-2 (SARS-CoV-2, wild type (Wuhan-Hu-1 …, UniProt P0DTC2)). Kind of assay: BLI. For orientation: Biolayer interferometry detects binding as a change in optical thickness at a sensor tip.
Another assay has as its target Fc-tagged wild-type RBD (SARS-CoV-2, UniProt P0DTC2). Kind of assay: BLI.

The term IC50 denotes the concentration that inhibits the measured activity by half. A lower IC50 goes with greater potency in that assay.

B1: CoV2–06 (antibody, V domains shown)
VH: QVELQESGPGLVKPSGTLSLTCAVSGGSISSNNWWTWVRQPPGKGLEWIGEIHHSGGTNYNPSLKSRVTMSVDKSKNQFSLNLYSVTAADTAVYYCTRDRAGGTYSGFDFWGQGTLVTVSS
VL: QAVVTQPASVSGSPGQSITISCTGTSSDVGGYNYVSWYQQHPGKAPKLMIYDVSNRPSGVSNRFSGSKSGNTASLTISGLQAEDEADYYCSSYTSSSTVVFGGGTKVTVL
For B1, the “fold change of the avidity KD, RBD loaded at 1000 ng/ml against 40 ng/ml” value in assay [1] was determined as 46 fold. Besides, the midpoint of inhibition with Fc-tagged wild-type RBD, the IC50, lay at 39.8 nM.

B2: CoV2–14 (antibody, V domains shown)
VH: EVQLQQSGPGLVKPSQTLSLTCAISGDSVSSNSAAWNWIRQSPSRGLEWLGRTYYRSKWYNDYAVSVKSRITINPDTSKNQFSLQLNSVTPEDTAVYYCAREEQQLVHDYYYYGMDVWGQGTMVTVSS
VL: QAVVTQPASVSGSPGQSITISCTGTSSDIGAYNYISWYQQHPGKAPKLIIYEVSNRPSGISYRFSGSKSGNTASLTISGLQAEDEANYYCSSYAGSISFGGGTKVTVL
Turning to B2, the “fold change of the avidity KD, RBD loaded at 1000 ng/ml against 40 ng/ml” value in assay [1] is 2 fold. In addition, half-maximal inhibition with Fc-tagged wild-type RBD (IC50) was put at 10.6 nM.
